# According to the DeepSol protein solubility set:
# Experiment: soluble on expression in E. coli; label from the status in PepcDB or PDB records
row,Sequence,soluble on expression in E. coli
1,MGSDKIHHHHHHMALYPLPALVEQLMTQPIIFIGGKGGVGKTTTAAALASYYASQGKKTLIVSTDPAHSLGDVLKVPLKNQKTVVTPYLDAIELNPDLIVDEHFAQVERTITSYANPDMMPKIREHLRLSKSAPGAQEAAMLESMCQHLVAAADAGYEHIIFDTAPTGHTLRLLVLPEMMGAWTDGLLAQQRRQAKLRSVANHLGSHEQANNNKNDLANPFVERKSDRWEQAVSVLEKRKQLFRQAGLLLHDRRKTAIVLVMTADVLPLAETKRAIEQLEESNLIPAAIVINQLITQTQSDAFWHHRAERQQQLMQDIEKNFTNYPLYPIYLQQTDVRGTDALSALVSPVS,not soluble
2,MGSDKIHHHHHHMANTSSDWAGAPQNASADGEFVRDTNYIDDRIVADVPAGSEPIAQEDGTFHWPVEAGRYRLVAARACPWAHRTVITRRLLGLENVISLGLTGPTHDVRSWTFDLDPNHLDPVLQIPRLQDAYFNRFPDYPRGITVPALVEESSKKVVTNDYPSITIDFNLEWKQFHREGAPNLYPAELREEMAPVMKRIFTEVNNGVYRTGFAGSQEAHNEAYKRLWVALDWLEDRLSTRRYLMGDHITEADIRLYPTLVRFDAVYHGHFKCGRNKITEMPNLWGYLRDLFQTPGFGDTTDFTEIKQHYYITHAEINPTRIVPVGPDLSGFATPHGREKLGGSPFAEGVTLPGPIPAGEEVKNPEPFQK,not soluble
3,MGSDKIHHHHHHMANVTPEIVKALFTGFGKNFKDGLAKAPSQYTAIATVIKSTTASNTYAWLGQMPKLTEWIGKRAITAIQSHGYAIVNKDWASGVEIKRTDIEDDNIGVYSPLVEELGRSAGEQPDELVFGALKGGFTTECYDKQYFFDTDHPVGANPDGTSPTSVSNITDDGTSVTADGAWYLLDCSRALKPLIFQQRKPATPAQMTDANAQKVFEDNVYTRCNVGYGFWQMAHAVKGKLNAENLWKAIKAMRAVHSDGGHKLGIKPTHIVVPTSLQEEAVKLLERELRVEDGAAVDNEFKNMKLTLIVADYL,not soluble
4,MGSDKIHHHHHHMAPLRIRYQTHEFGVLDIHIRTLRDNQEFEDINGEAEKLGISSATWPLFGIVWPSEQVLSHHMLDYPIEGKRILEVGCGIGLASLVLNHRLADITATDYHPETGSFLSQNVALNKGRTIPFVRTGWADETSKLGLFDLIIGSDLLYEQEHADLLSQFIEQHAKPICDVILVDPGRGNHAKFSKRMVTLGYEHSQHKPIHTEFLLAPFGGQILSYSRTKS,not soluble
5,MGSDKIHHHHHHMAQNIYDQPDFFAGYSQLGRSIEGLDGAAEWPALRAMLPEVGGLRIVDLGCGFGWFCRWAHEHGASYVLGLDLSEKMLARARAAGPDTGITYERADLDKLHLPQDSFDLAYSSLALHYVEDVARLFRTVHQALSPGGHFVFSTEHPIYMAPARPGWAIDAEGRRTWPIDRYLVEGPRKTDWLAKGVVKHHRTVGTTLNALIRSGFAIEHVEEFCPTDAQITARPELAEELDRPMFLLVSARR,not soluble
6,MGSDKIHHHHHHMAQVLWIIQIISKGLVRTLRFKAHILRMILLGSLGVAIHVSVVNAAVTDNSLPQESIPLVQGFIDAVKAHDRQAIADYMAYPIKRTNPIPAINTPEELLKRFDQVFDPEILETIAQSQVEADWQAMGWRGIMLGSGTIWMDFDGKITAVNYQTPAETKLKAELIANQKTGLHESVSQFVSPELAWQTAKFTIRVDNMGNSQYRYASWAKGKPLSEKPDLVLNQGKLVFDGSGGNHSFQFTSGPYLYVCDVIVLGTSDSPIGELVVFKHDRVLLREPAIKAE,not soluble
7,MGSDKIHHHHHHMARGYIAKKLLVEGKDDLRVIPELIEKNGIVWGNNKKEAIVTIEDYGGYTNINSDLVSTELQASGLTHLGLMVDADDKPQTRWQSIREACLDSILDIPEEIPTTGLIHTTNTGIKFGVWIMPDNLMQGMLETFLAYMIPDESEPLWMYAQEVVAEAKIKGASFIDARIDKAKIHTWLAWQEEPGR,not soluble
8,MGSDKIHHHHHHMARKKNTSDQSRSQAANTPIAGTYEGEYSVIELEADSYTTDGWLISINGVPSSHIVLGQPQALEFEYMRWIATGARAFIDAHQDASKLRITHLGGGACTMARYFADVYPQSRNTVVELDAELARLSREWFDIPRAPRVKIRVDDARMVAESFTPASRDVIIRDVFAGAITPQNFTTVEFFEHCHRGLAPGGLYVANCGDHSDLRGAKSELAGMMEVFEHVAVIADPPMLKGRRYGNIILMGSDTEFFSSNSTEASAITRELLGGGVPAQYKDESWVRKFASGAQARHDGVSTLQMPSDTPQHPAETPEHSNTQP,not soluble
9,MGSDKIHHHHHHMASLQIAHNTRIVKEAARIAGFDYCGISAARFLEEEAPRLESWLNRNQHGTMSWMENYFDKRLDPRKLVDGAKSVVSVLLNYTPAPEDEILSTGETKISRYAYGKDYHYVLKDKFKQMLQHITEQIGEVNGRAFVDSAPVMDKAWAKQGGLGWVGKHSNIITKDSGSYFFIGELIIDLELDADGPIKDYCGTCTRCIDACPTNAITEPYQVDGSKCISYLTIELKEQIPSEFKEQMQGWAFGCDICQEVCPWNRFAQPINKNEFSPSEELKKYFEMPLKEITKEVFNILFKDSTIKRTKIEGLSRNLTFIKKET,not soluble
10,MGSDKIHHHHHHMAVGTTKMAQMLDPEVLADMIDAEVGKAIRFAPLAEVDTTLEGQPGTTLTVPKWDYIGDAEDVAEGEAIPMTQLGFKKTTMTIKKAGKGVEITDEAILSGYGDPVGQAAKQIVEAIDHKVDADVLDALSKSTQTVEATATVDGVSKALDIFNDEDDAETVIVMNPADASTLRLDAAKEWLGATEVGANRVVSGVYGEVLGVQIVRSRKCPKGTAYMVRKGALRIMLKRNTMVETDRDITKAINQIVANKHYGVYLYKAEKAVKITLKDAAKK,not soluble
11,MGSDKIHHHHHHMCPMQNYPYVITVSSEKGGVGKTTLATNLAIYLKALDENLPVTIFSFDNHFTVDRMFEIRGQRLTGSVADLLMESPPRDLIHTGQYGVGYIPSSASLNDLKGSIRGPMVLARLLAASRIPGVLIIDTRPDLDMLTQNALFAADRAIIPVKDMPSLENCRNIFALFEQRGLDRKSLSLIPCLVDERIKFDGPFNDQKTLLKAYAINRGYRCLDVYISKSPKVESLNTNPDGKIYPILTHAKWTEVHGQFAQLAQILINEYNATTEPRSLLFHKWLQTEESRKKEEFFARLSGIKSQCLLCGKPVSDDGDGRHSFYFEVSDGSAAGFFEEECFLTMLMTNIYNMDVSMVDDAPTVHLMRDSSRESAFVFRPASNGGAVEFHRFSLDGTLLIKKNYPLREYEGGLLRRERSRLYTLMTEALGTAGAGSSDRFILVHPVTRDNPQGILRDESYRGLTKLKQHIAAQIASS,not soluble
12,MGSDKIHHHHHHMCRLLAYLGSPVSLEHLLYKPEHSLIVQSYKPREMTSGAVNADGFGVGWYHSQKDIEPFTYKNTLPIWNDINLLSLSRYIESKCVLAYVRSATSEQAVDFANCQPFKHQQQLFIHDGRIENFHKTLHRKIRSTLTQDFYEKINGNTDSEHIFALLLSQSQINKHRPPEYALRTTLLTLLEMAKRYQVEASINVIFSDGHRLIASRFATTSLAPSLYWVRDDPTFSNSVIIASEPLFIGNWNAFPENSIITVGADCEIQIEQI,not soluble
13,MGSDKIHHHHHHMCRLLAYLGSPVSLEYLLYKPEHSLIVQSYQPREMTSGVVNADGFGVGWYHSQKDTEPFTYKNTLPIWNDINLPSLSRYVESKCILAYVRSATAGQALDFANCQPFHYKQSLFIHNGYIENFRKTLHRKLRSTLTPDFYEHINGSTDSEHIFALLLSQIQSNKHRSVESVLRNTLLMLWEMAKRHQVNASANVVFSDGHRLIASRFASSSSPPSLYWLKDDLTFPNSVIIASEPLFAGNWTACPENSIISVGEDCDIKIESI,not soluble
14,MGSDKIHHHHHHMDAIARELRTSRSTVSRLLSAARETGLVQIQIRNPLDTGPELENMIRTQYRVDVHVVPVLDTLNEAETLDRVAMQAARTIGPLVDSNAIIGVAWGSTLSAVSRHLTRKITHDSVIVQLNGAGNMQTTGITYASDIMRRFGSAYGARVEQFPVPAFFDHAATKTAMWNERSVQRILELQSRMSIAIFGVGSVDADYPSHVYAGGYLDEDDLNILANSDVVGDVATVFFRGDGSSDGITLNERSTGPALAQLRQVRRRICVVSGASKINGLRGALAAGLATDLILDEATARRLVSFDGLS,not soluble
15,MGSDKIHHHHHHMDAMKYNDLRDFLTLLEQQGELKRITLPVDPHLEITEIADRTLRAGGPALLFENPKGYSMPVLCNLFGTPKRVAMGMGQEDVSALREVGKLLAFLKEPEPPKGFRDLFDKLPQFKQVLNMPTKRLRGAPCQQKIVSGDDVDLNRIPIMTCWPEDAAPLITWGLTVTRGPHKERQNLGIYRQQLIGKNKLIMRWLSHRGGALDYQEWCAAHPGERFPVSVALGADPATILGAVTPVPDTLSEYAFAGLLRGTKTEVVKCISNDLEVPASAEIVLEGYIEQGETAPEGPYGDHTGYYNEVDSFPVFTVTHITQREDAIYHSTYTGRPPDEPAVLGVALNEVFVPILQKQFPEIVDFYLPPEGCSYRLAVVTIKKQYAGHAKRVMMGVWSFLRQFMYTKFVIVCDDDVNARDWNDVIWAITTRMDPARDTVLVENTPIDYLDFASPVSGLGSKMGLDATNKWPGETQREWGRPIKKDPDVVAHIDAIWDELAIFNNGKSA,not soluble
16,MGSDKIHHHHHHMDANSLKAFLTIVDQGSFSEAAETLHLTQPAISKRLAALETQLGTRLIDRSNREIRLTEAGTRLLPHARKILDEIHNARMALTTSADSIGGELHAIASHHIGLHHLPNWLRRYRREYPQVDLHLQFMESDAAYDQMNKRNAELAFVTLSDSMNPEFSILAQWPDPMAFVVGKEHPLATLASPSLSDLAPHPALLPDTSTATYRVVSRLFLEANLTLRPLMPTNYLETIKMMVSVGLGWSILPVSMLDNSLKVLEVPHPVTRVLGAVALSRRQLGSAAQALLQIVEQEETRPESGQ,not soluble
17,MGSDKIHHHHHHMDAPALPARWKVSAPELIAETFSSRIWKVVRDDGSPAVVKALKPFDDVADELRGEHFLAWRRGEGAVRLLGRDGHSMLLEYAGETLLTQVLDEQGDNAATAIAAELMTKLFSPSQHPYPPELQPLTERYTSLFRKAATDRGAGHASIYVEAAAIAERLLDNPHDIRPLHGDLHHDNILHGPRGWLVIDPKGVLGNPGFDAANMFYNPLDRDDLCLDPERIAHMAEVFAKTLGESPAAILDHAIAYGCLSAAWHHEDDNAVEENRELSIAKAIRAMRANF,not soluble
18,MGSDKIHHHHHHMDDAMVSAVTCGAVMAFDRNIWIEKFLENSVPSFPCPHCSRGVLGFDGKSFWKEEPKHSKDAHAHDDWDPTWIEERFVMFLRCGVAKCGEVVAVSGNIEVEEVVDEDEGYDFASVLYPTSLVPAPPIIQMTDGTPDEVAGELSLAFQLFWADLGASATKIRTSVERLMDHFKVARYSRTKGKLKPIPLYNRIEAFIKANGKVVHQDHLHALRVVGNLGTHKNSLTRSDILEAFQVYEHALDELIGKKSASIAKLARKLKKK,not soluble
19,MGSDKIHHHHHHMDDRARALLKALIERYIADGQPVGSRTLSKVFDLSPATIRNVMADLEELGLIHSPHTSAGRVPTPRGYRMFVDSLLAVRAYQFEPAHIGELLPVSEPSRAVNAAAALLSNLTQFAGVVLTPKRTQIFRQIEFIRLSDKRVLLIIVTPEGDVQNRILSAQRDYTEAELLEAGNFFNVHFSGKSFDAVRRTLSTELAQLRDDISRLMQAAVEAGAEAADDGEAVVISGERKLLDVTDIASDMDRLRKMFSLFEKKTDLLQLLDVSSRAQGVQIYIGGDSQLVPMEEVSVITAPYGVDGKVIGTLGVIGPTRMAYERVIPIVDITARLLSNALSHNQ,not soluble
